This note sets out measurements from PMC4005458, “Brassinosteroids control root epidermal cell fate via direct regulation of a MYB-bHLH-WD40 complex by GSK3-like kinases” (eLife, 2014).

B1: His-fused BIN2 (enzyme, Arabidopsis, UniProt Q39011 1-380, looked up)
chain: MADDKEMPAAVVDGHDQVTGHIISTTIGGKNGEPKQTISYMAERVVGTGSFGIVFQAKCLETGETVAIKKVLQDRRYKNRELQLMRVMDHPNVVCLKHCFFSTTSKDELFLNLVMEYVPESLYRVLKHYSSANQRMPLVYVKLYMYQIFRGLAYIHNVAGVCHRDLKPQNLLVDPLTHQVKICDFGSAKQLVKGEANISYICSRFYRAPELIFGATEYTTSIDIWSAGCVLAELLLGQPLFPGENAVDQLVEIIKVLGTPTREEIRCMNPHYTDFRFPQIKAHPWHKIFHKRMPPEAIDFASRLLQYSPSLRCTALEACAHPFFDELREPNARLPNGRPFPPLFNFKQEVAGSSPELVNKLIPDHIKRQLGLSFLNQSGT
notes: BIN2 (BRASSINOSTEROID … 2), GSK3-like kinase of Arabidopsis, cloned into the PET28a vector; Primers are in Supplementary file 1; also called BIN2-His; source: E. coli BL21 (DE3) pLySs, purified (Ni-NTA agarose)

One assay has as its target T1, GST-fused EGL3 (Arabidopsis, UniProt Q9CAD0 1-596).
T1 construct: also called EGL3-GST; source: E. coli BL21 (DE3) pLySs, purified (glutathione resin)
T1 sequence (looked up): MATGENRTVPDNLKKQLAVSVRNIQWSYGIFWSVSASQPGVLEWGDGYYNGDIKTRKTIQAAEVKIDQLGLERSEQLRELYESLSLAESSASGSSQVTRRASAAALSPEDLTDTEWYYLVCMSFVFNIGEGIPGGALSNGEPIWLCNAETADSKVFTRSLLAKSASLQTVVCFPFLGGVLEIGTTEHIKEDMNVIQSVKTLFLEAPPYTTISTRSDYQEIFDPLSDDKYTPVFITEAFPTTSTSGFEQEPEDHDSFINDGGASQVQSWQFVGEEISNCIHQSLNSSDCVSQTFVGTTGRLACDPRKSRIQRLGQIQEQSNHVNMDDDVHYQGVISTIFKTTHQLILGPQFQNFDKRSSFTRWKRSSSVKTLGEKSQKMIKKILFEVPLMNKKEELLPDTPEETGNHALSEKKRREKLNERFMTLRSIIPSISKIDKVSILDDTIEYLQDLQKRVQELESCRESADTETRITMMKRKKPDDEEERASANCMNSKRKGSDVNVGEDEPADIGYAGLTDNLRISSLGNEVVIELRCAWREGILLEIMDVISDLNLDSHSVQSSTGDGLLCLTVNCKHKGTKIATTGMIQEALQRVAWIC
Description: pull-down; GST fusions bound to GST resin, BIN2-His added, 2 hr at 4°C; 10 mM phosphate buffer pH 7.4, 140 mM NaCl, 3 mM KCl, 0.1% Triton X-100; immunoblot with anti-His antibody. The settings on record: both partners purified. For orientation: Immunoblotting shows a protein as a band on a membrane.

The target in the assay “His-fused BIN2” is B1. The assay is described as above. The conditions noted are these: both partners purified.

Consider B1, for which the binding result with GST-fused EGL3 is “binds”.

B2: TRANSPARENT TESTA GLABRA1 (TTG1) fused to GST (natural protein, Arabidopsis, UniProt Q9XGN1 1-341, looked up)
chain: MDNSAPDSLSRSETAVTYDSPYPLYAMAFSSLRSSSGHRIAVGSFLEDYNNRIDILSFDSDSMTVKPLPNLSFEHPYPPTKLMFSPPSLRRPSSGDLLASSGDFLRLWEINEDSSTVEPISVLNNSKTSEFCAPLTSFDWNDVEPKRLGTCSIDTTCTIWDIEKSVVETQLIAHDKEVHDIAWGEARVFASVSADGSVRIFDLRDKEHSTIIYESPQPDTPLLRLAWNKQDLRYMATILMDSNKVVILDIRSPTMPVAELERHQASVNAIAWAPQSCKHICSGGDDTQALIWELPTVAGPNGIDPMSVYSAGSEINQLQWSSSQPDWIGIAFANKMQLLRV
notes: TTG1 (TRANSPARENT TESTA GLABRA1), WD40 repeat protein of Arabidopsis; The methods describe the cloning of only EGL3 into pGEX4T-1; the making of TTG1-GST is not described; also called TTG1-GST; source: recombinant, purified
Consider B2, for which the binding result with His-fused BIN2 is recorded as “binds”.

B3: WEREWOLF (WER) fused to GST (natural protein, Arabidopsis, UniProt Q9SEI0 1-203, looked up)
chain: MRKKVSSSGDEGNNEYKKGLWTVEEDKILMDYVKAHGKGHWNRIAKKTGLKRCGKSCRLRWMNYLSPNVKRGNFTEQEEDLIIRLHKLLGNRWSLIAKRVPGRTDNQVKNYWNTHLSKKLGIKDQKTKQSNGDIVYQINLPNPTETSEETKISNIVDNNNILGDEIQEDHQGSNYLSSLWVHEDEFELSTLTNMMDFIDGHCF
notes: WER (WEREWOLF), R2R3 MYB-domain transcription factor of Arabidopsis; The methods describe the cloning of only EGL3 into pGEX4T-1; the making of WER-GST is not described; also called WER-GST; source: recombinant, purified
Consider B3, for which, in the assay with His-fused BIN2, the binding result is reported as “binds”.
